Assay results published in the supplement of paper PMC9170038.

Test system: K4 kissing-loop RNA reporter
Assay: apparent KD of K4 kissing-loop reporter; higher = weaker reporter binding
Conditions: Eterna round: R107
Procedure: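 RNA-MaP round R107: designed RNA switches with theophylline, tryptophan, arginine or FMN aptamers are transcribed on-chip within common flanks. They are titrated with a labelled K4 kissing-loop RNA reporter in RNA-MaP buffer (100 mM Tris pH 7.5, 80 mM KCl, 4 mM MgCl2), without ligand or with the indicated ligand. Median apparent KD per design.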

[1] = input ligand: theophylline 20 uM
[2] = input ligand: tryptophan 2.4 mM
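Also: bound reporter read as fluorescence of individual clusters on recovered sequencing chips by microscopy, with normalized cluster intensities fitted with a binding model.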

Row | Sequence | apparent KD of K4 kissing-loop reporter (input ligand: FMN 200 uM) | apparent KD of K4 kissing-loop reporter (input ligand: arginine 13.2 mM) | apparent KD of K4 kissing-loop reporter (input ligand: none) | apparent KD of K4 kissing-loop reporter [1] | apparent KD of K4 kissing-loop reporter [2]
1 | GUAGACAGACUGCGGGCCUAGUCUACAGACUAGGAUAUCAGGAAACUGAGAAGGAGUCUAGUUGCAGUGAUGUUGCAAGAAUAAU [KL-SSFMN-A26] | 99.1 nM | 115 nM | 93.6 nM | 114 nM | 78.4 nM
2 | AAGUGUCAUUAGACACAGACUACAAUAAACUAGGAUAUGCUGAUAAGCAGAAGGAGUGAUGUUCCUUUCAAGUAGUCAAUUAAAU [FmnAX 20 Mat Inspired #SwitchBubble #StaticStem #K4Late] | 243 nM | 120 nM | 106 nM | 128 nM | 97.6 nM
3 | GCCGUACGCAUGGAUACCAGUCAAGAUCAGUGAUGUUGAUCUUUUAUAGAGCCUACAUUUGACCCUUGGCAGCCAUGCGUACGGC | 378 nM | 320 nM | 330 nM | 465 nM | 247 nM
4 | GGCAGUGAUGUUGCCUAAGCAACGCAUGCGGAGGAUAUUCGUUCGGGAAGAAGGCCGCAGCGUUCUCUCGCGAGUGAUGUUCGCA [Same State FMN A GF 22] | 158 nM | 160 nM | 173 nM | 166 nM | 147 nM
5 | UGUGUUGUUUUGAUGUUUGGUGUUUGUUGGCAGGAUAUCGUAGAGGCGAGAAGGGCUUUGUUGCGGUAUGAGUGAUGUUUGUAGG [szzrmullin] | 349 nM | 174 nM | 295 nM | 244 nM | 255 nM
6 | UAUGUCAUUCUCGACGGAGUGAUGUUCCGACGAGGACCGGUACGGCCGCCACUCGGCAGAAUUGAGUCUGUGAUCCUAGAUCAAU [theeternabot_exclusion_KL_Trp_A_44] | 120 nM | 99.3 nM | 116 nM | 103 nM | 200 nM
7 | GGAUCCACCAGUGAUGUUGGAGAAAACUCCAAGGAUAUGACGAAAGUCAGAAGGUGGUAGACUGGGCAAAGUCCGGUCGGAUCCA [FmnA10 G66] | 3150 nM | 68.5 nM | 144 nM | 49.9 nM | 355 nM
8 | AGUGGACGUGUCUAGAGUGAUGUUCCGGAUACCAGACACGAAAGUGUCCCUUGGCAGCCGGAGUGAUGUUCUGGCGUUCACUAAA [Omei KL Theo A Exc B v6] | 647 nM | 296 nM | 549 nM | 459 nM | 440 nM
9 | AGACCACAAAGUGGUCAGUGUUCGCUGCCGCGAGGACCGGUACGGCCGCCACUCGCGAGUGAUGUUCGCGAGGGCAGCGAACACA [Omei KL Tryp A Exc A v4] | 99.7 nM | 87.8 nM | 87.9 nM | 86.8 nM | 106 nM
10 | UCCAAGGACGAACCGGUAUGAUCACCGGAUACCAGAGGCGAAAGCCUCCCUUGGCAGCCGAGUGUAGUGAUGUUACACUGGUUCU | 89.8 nM | 82.8 nM | 90.7 nM | 94.5 nM | 91.5 nM
11 | UGGAUAUAGUGAUGUUAUAUAGAGAUGGAUACCAGCGAAGAGAAUUGCCCUUGGCAGCCGAAAGCAGUAUCAUUAGAGAAGAAUG [#19 K4 Theophylline A Exclusion] | 291 nM | 252 nM | 271 nM | 251 nM | 255 nM
12 | UUAGAGAUCUCAGGAUAUGAGUGAUGUUGGUGUCAAGAUCUGAGAUAGAAUUCUAUCUCAGAUCAAUCAGAAGGGAGAUCUCAUU [AK2.2 Exc FMN B] | 325 nM | 294 nM | 483 nM | 485 nM | 413 nM
13 | AAUCGAGUGAUGUUCGAUGUAGUGCAUUCAGAGGAUAUAGGAUGGGCUAGAAGGCUGAAAAGUGCUUCGAGUGAUGUUCGAAGAU [Exclusion FMN A GF 4] | 47.1 nM | 49 nM | 76.7 nM | 49.7 nM | 56 nM
14 | AAUUUAUUAACUGAUACCAGACUUUAGCGUGUUUAUAAGUCAAGUGAUGUUUGACUAUUAGUCCCUUGGCAGCAGUAUUUAUUAA [JR_SSTheophyB_Sub022] | 149 nM | 131 nM | 134 nM | 114 nM | 120 nM
15 | AUAAUUAUGACGGCCGCCACUGAGAGUAGUGAUGUUACUCUUUUCCUUUAGUAAUAAUUUUUUAUCAGGACCGGGUUAUUUGAAU [JR_Nu_ExcTryptoB_Sub027] | 68.7 nM | 67.2 nM | 70.2 nM | 64.4 nM | 83.9 nM
16 | UUUAUUAAGACGGCCGCCACUGAAUUAGAGUGAUGUUCUAAAAUUACUAAAUUAAAUUUAUUCAACAGGACCGGGUCAAUUAUUA [JR_SSTryptoB_Sub010] | 399 nM | 405 nM | 461 nM | 432 nM | 513 nM
17 | GGAUAGGACAGAGGAUAUGGUAGCUAGGCAAGAAUAACUUGUCUAGCAUCCAUGAGGAGUGAUGUUCCAGAAGGCUGUCCUAUCG [FmnBX 5 - #SwitchBubble #StaticStem] | 235 nM | 145 nM | 211 nM | 150 nM | 165 nM
18 | GGUGACAGCCAGGAGUGAUGUAUAGAAUAGCGAGGACCGGUACGGCCGCCACUCGUGAAGAGAAAGGAGUGAUGUUCCGUAAUGG [Kazoo C2] | 224 nM | 178 nM | 193 nM | 308 nM | 57 nM
19 | CAAAACGAGUGAUGUUCGGACAACAACGUUAAGGAUAUACUUCUCUGUAGAAGGUAACAGUAUUUAUAUUUCAUCAACGAAAAUG [theeternabot_exclusion_KL_FMN_A_12] | 213 nM | 183 nM | 280 nM | 248 nM | 181 nM
20 | AAGCAGUCCCUCGAAGCCAUCGAAGAUGGGCGAGGACCGGUACGGCCGCCACUCGGAGUGAUGUUCCGAAGACUGCAAAAUAAAA [MatMod 3 - Jieux - Exclusion - Tryptophan A] | 367 nM | 316 nM | 192 nM | 273 nM | 185 nM
21 | GUAUCGCUAGGAGGAUAUUUCAAAUAACCAAUAAAUGGUUAUACGGAGUGAUGUUCCGAUUUACGGAAAGAAGGCCUAGUGAUAC [FMN B 5] | 137 nM | 276 nM | 302 nM | 319 nM | 290 nM
22 | GGAGUUACCUGGGAUACCAGUCGGAGUCUCAGAGCUCGGAGUGAUGUUCUGGGAUGUUUCGGCCCUUGGCAGCUCUGGGACUCCA [#2 Exclusion - Theophylline B Attempt #16 (HarryS)] | 924 nM | 627 nM | 863 nM | 843 nM | 707 nM

Row | Sequence | apparent KD of K4 kissing-loop reporter (input ligand: FMN 200 uM) | apparent KD of K4 kissing-loop reporter (input ligand: arginine 13.2 mM) | apparent KD of K4 kissing-loop reporter (input ligand: none) | apparent KD of K4 kissing-loop reporter [1] | apparent KD of K4 kissing-loop reporter [2]
23 | UGUCUUUUUUUGAUGUUUUUUGUAUAAUGGCAGGAUAUCGUAGAGGCGAGAAGGGCUUUUAUGCGUUAUGAGUGAUGUUUGUAGG [vevvmullin] | 321 nM | 240 nM | 302 nM | 295 nM | 220 nM
24 | AAAUUUAAUAUAUUUAAUUAAUUAAGUGAUACCAGACAUUAAUAAGUCCCUUGGCAGCGCAAUGCAGUGAUGUUGCUUAUAAUAA [#18 K4 Theophylline A Same State] | 56.1 nM | 82.9 nM | 50.1 nM | 136 nM | 48 nM
25 | UGAUACCAGACGGCCGCCACUAGGACCGGGAGUGAUGUUCCAAAAUUAAAAUACUCGGCCGCCACUAGGACCGGGUCUGGUAUCU [TrypBX 25 #DoubleAptamer #SwitchBubble] | 225 nM | 137 nM | 162 nM | 205 nM | 75.4 nM
26 | UGAUACCAGACUGAUACCAGCCAGUGAUGUUGGCUAAGCCGAAGAGGUGUCAAAGACACCGGCCCUUGGCAGCAGUCUGGUAUCU [#06 K4 Theophylline B Exclusion] | 132 nM | 117 nM | 114 nM | 117 nM | 117 nM
27 | CCACCUCCAGAAGGAUAUAGUGUAUCAGAUUCACUCGAGUGCCUUAAACUAAGGAGUGAUGUUCCGCUAGAAGGUCUCGUAGGCA [theeternabot_exclusion_KL_FMN_B_45] | 191 nM | 145 nM | 149 nM | 138 nM | 133 nM
28 | AAGUGAUGUUGUAGUGAUGUUGUGAUGUUGCAGGAUAUAUAGUGAUGUAGAAGGGUAUGUACUUAUUUUUUAUUUGAGUUAUGUU [mmvmmullin] | 72.1 nM | 29.8 nM | 56.1 nM | 43.9 nM | 57.2 nM
29 | UUCAUCGUGGUUCACGGGUGGUAUGAAACGCGAGGACCGGUACGGCCGCCACUCGGUUCCGCUUGUUGAGUGAUGUUCAAUAUUU | 239 nM | 333 nM | 290 nM | 323 nM | 257 nM
30 | CGAGUCCUGAGGAGUGAUGUUCCUCGGCCACGAGGACCGGUACGGCCGCCACUCGUUACUCGGGCUUAGUAGCUAGCACUAAGCU [Quedmaon] | 265 nM | 171 nM | 186 nM | 232 nM | 101 nM
31 | GCUAUGGUAGGAAGGAGCGCGGACGGUAUUUGUCGAGUGAUGUUCGAUUCUUUAAUUUGAACGCAGGUAGGUCGCCUACUAUAGC [Arginine B K4 30] | 214 nM | 183 nM | 226 nM | 258 nM | 221 nM
32 | AAAUAAAUCGGAGGAUAUCCUUCCCACGUCGAAGUACCGUGCUUGAUGGAGUGAUGUUCGAUCAGAGGAGAAGGCCGAUAAAUAA [Same State FMN B GF20] | 1040 nM | 732 nM | 1040 nM | 924 nM | 777 nM
33 | GCUGAGGAGUGAUGUUCCAAGUGAUGUUAACGAGGACCGGUACGGCCGCCACUCGAUACGGCCGGACCGUAAGAUAAACUACAGC [Same State - Tryptophan A (Freestyle 7)] | 316 nM | 281 nM | 288 nM | 409 nM | 315 nM
34 | AAUAAAAUCACGGCCGCCACUGAUGCUAAUAUUAGCAGUGAUGUUGCUAUGUAGAUUUUAUUUAACAGGACCGGGUGAAUAUUUA [JR_SSTryptoB_Sub025] | 198 nM | 124 nM | 162 nM | 170 nM | 269 nM
35 | AGACUUCACCGAAGGAGCGACGUGGCCUAGUGAUGUUAGGUACGAGAGAAAUCUCGUAUACGUCAGGUAGGUCGCGGUGAAGUCA [Omei KL Arginine B SS C v8] | 868 nM | 643 nM | 997 nM | 721 nM | 830 nM
36 | CCGCUACCCUCAGGAUAUUAAGUAUUAGUGAUGUUAGUAAACCGAUGGCGAAAGCCAUCGGUAUGUUGAGAAGGGAGGGUAGCGG [whbob_SS_FMNB__2th198] | 356 nM | 946 nM | 1170 nM | 847 nM | 923 nM
37 | AAAAUAGAUCAGUGAUGUUGGUGUCUGGAUACCAGCGAUAAUAGUCGCCCUUGGCAGCCAUGGACGUACAAAAUAAGUACGUCCU [MatMod 20 - Jieux - Same State - Theophylline A] | 487 nM | 239 nM | 369 nM | 285 nM | 347 nM
38 | GCCGUAGAUUGAAGGAGCGUGGAACUAUGGCUUGAACAGUGAUGUUGUUUAUCUAGGUAGCCGCAGGUAGGUCGCAAUCUACGGC | 263 nM | 250 nM | 270 nM | 239 nM | 229 nM
39 | GACUGGUUAACGAGUGAUGUUCGAUGGGAAGGAGCGCGCAGAAGUGCAGGUAGGUCGCCCUAUAACCAGGAAAUGGCUGGAUUAU [3.)] | 205 nM | 224 nM | 205 nM | 252 nM | 145 nM
40 | UUAGUCUAGAGAAGGAGCGAGUGAUGUUUGCUAAGAUCUAUGAUAUCAUAGAUCAAAUUUACUCAGGUAGGUCGCUCUAGACAUU [AK4 Exc Arginine B] | 294 nM | 53.1 nM | 182 nM | 165 nM | 137 nM
41 | UACACGACUCGUGUAAACCGAGGUAACAGGCAGGAUAUGUAACGGAACAGAAGGGCCAUGUUGCGUGUCCAGUGAUGUUGGAUGC [Vetedile] | 170 nM | 231 nM | 270 nM | 272 nM | 246 nM
42 | GCGCGGCUCAGUGAUGUUGAGCCUCGGAAACGAGGACCGGUACGGCCGCCACUCGUCCGCGCAGCUGAGGCAAAAGCCUCGGCUA [Omei KL Tryp A SS B v2] | 468 nM | 310 nM | 484 nM | 480 nM | 273 nM
43 | AGUGUGCAAAAGCACACUCAGCACAAGGACAAGGAUAUCUACUAAUAGAGAAGGUGUCCUUUCCUUAGUGAUGUUAAGGAGCUGA [Omei KL FMN A SS D v1] | 238 nM | 526 nM | 700 nM | 624 nM | 693 nM
